Literature values as cited in article PMC11866755.

What was measured:
Assay in all cases: NMR
Glu10 = Glu10 (UniProt position 92, KKLHKEPATLI); details: folded protein, ligand state not stated
Glu43 = Glu43 (UniProt position 125, LVDTPETKHPK); details: folded protein, ligand state not stated
Glu122 = Glu122 (UniProt position 204, GNNTHEQLLRK); details: folded protein, ligand state not stated
Asp40 = Asp40 (UniProt position 122, RLLLVDTPETK); details: folded protein, ligand state not stated
Glu129 = Glu129 (UniProt position 211, LLRKAEAQAKK); details: folded protein, ligand state not stated
His8 = His8 (UniProt position 90, STKKLHKEPAT); details: folded protein, ligand state not stated
Glu135 = Glu135 (UniProt position 217, AQAKKEKLNIW); details: folded protein, ligand state not stated
Glu57 = Glu57 (UniProt position 139, EKYGPEASAFT); details: folded protein, ligand state not stated
His121 = His121 (UniProt position 203, KGNNTHEQLLR); details: folded protein, ligand state not stated
Glu75 = Glu75 (UniProt position 157, KKIEVEFDKGQ); details: folded protein, ligand state not stated
Glu101 = Glu101 (UniProt position 183, GKMVNEALVRQ); details: folded protein, ligand state not stated
Asp77 = Asp77 (UniProt position 159, IEVEFDKGQRT); details: folded protein, ligand state not stated
Glu73 = Glu73 (UniProt position 155, NAKKIEVEFDK); details: folded protein, ligand state not stated
Glu67 = Glu67 (UniProt position 149, TKKMVENAKKI); details: folded protein, ligand state not stated
Asp95 = Asp95 (UniProt position 177, AYIYADGKMVN); details: folded protein, ligand state not stated
Asp83 = Asp83 (UniProt position 165, KGQRTDKYGRG); details: folded protein, ligand state not stated
Glu52 = Glu52 (UniProt position 134, PKKFNEKYGPE); details: folded protein, ligand state not stated
Glu17 = Glu17 (UniProt position 38, YKTCPEGKNLC)
Asp59 = Asp59 (UniProt position 80, VCCSTDKCN--)
Asp42 = Asp42 (UniProt position 63, KRGCADNCPKN)
His4 = His4 (UniProt position 25, YTLKCHNTQLP)
Asp18 = Asp18 (UniProt position 36, KRHGLDNYRGY)
His15 = His15 (UniProt position 33, AAMKRHGLDNY)
Glu7 = Glu7 (UniProt position 25, VFGRCELAAAM)
Glu35 = Glu35 (UniProt position 53, CAAKFESNFNT)
Asp52 = Asp52 (UniProt position 70, TDGSTDYGILQ)
Asp101 = Asp101 (UniProt position 119, KKIVSDGNGMN)
Asp48 = Asp48 (UniProt position 66, TNRNTDGSTDY)
Asp87 = Asp87 (UniProt position 105, ALLSSDITASV)
Asp119 = Asp119 (UniProt position 137, RCKGTDVQAWI)
Asp66 = Asp66 (UniProt position 84, RWWCNDGRTPG)
[1] = target: His2 (position 2, ----GHAEG--); details: free peptide in solution
[2] = target: Glu4 (position 4, --GHAEG----); details: free peptide in solution
[3] = target: Glu2 (position 2, ----GEAHG--); details: free peptide in solution
[4] = target: His4 (position 4, --GEAHG----); details: free peptide in solution
[5] = target: Glu2 (position 2, ----GEAEG--); details: free peptide in solution
[6] = target: Glu4 (position 4, --GEAEG----); details: free peptide in solution
[7] = target: His4 (position 4, --GHAHG----); details: free peptide in solution
[8] = target: His2 (position 2, ----GHAHG--); details: free peptide in solution

## Staphylococcal nuclease Delta+PHS (printed as ΔPHS) (Staphylococcus aureus; G50F;V51N;P117G;H124L;S128A;del44-49)
Glu10
  pKa: 2.8
Glu43
  pKa: 4.3
Glu122
  pKa: 3.9
Asp40
  pKa: 3.9
Glu129
  pKa: 3.8
His8
  pKa: 6.5
Glu135
  pKa: 3.8
Glu57
  pKa: 3.5
His121
  pKa: 5.24
Glu75
  pKa: 3.3
Glu101
  pKa: 3.8
Asp77
  pKa: <2.2
Glu73
  pKa: 3.3
Glu67
  pKa: 3.58
Asp95
  pKa: 2.2
Asp83
  pKa: <2.2
Glu52
  pKa: 3.9

## Cardiotoxin V (cytotoxin 5, CTX A5) (Naja atra (printed as Naja naja atra, Chinese/Taiwan cobra))
Glu17
  pKa: 4.0
Asp59
  pKa: <2.0
Asp42
  pKa: 3.2
His4
  pKa: 5.5

## Hen egg-white lysozyme (HEWL) (Gallus gallus)
Asp18
  pKa: 2.8 ±0.3
His15
  pKa: 5.5 ±0.2
Glu7
  pKa: 2.6 ±0.2
Glu35
  pKa: 6.1 ±0.4
Asp52
  pKa: 3.6 ±0.3
Asp101
  pKa: 4.5 ±0.1
Asp48
  pKa: 1.4 ±0.2
Asp87
  pKa: 2.2 ±0.1
Asp119
  pKa: 3.5 ±0.3
Asp66
  pKa: 1.2 ±0.2

## GHAEG [Pentapeptide GHAEG (synthetic)]
[1]
  pKa: 6.14
[2]
  pKa: 3.81

## GEAHG [Pentapeptide GEAHG (synthetic)]
[3]
  pKa: 3.76
[4]
  pKa: 6.59

## GEAEG [Pentapeptide GEAEG (synthetic)]
[5]
  pKa: 4.06
[6]
  pKa: 4.04

## GHAHG [Pentapeptide GHAHG (synthetic)]
[7]
  pKa: 6.66
[8]
  pKa: 6.23
